Positions count from the first letter of the chain named. In names and notes the source's numbering stands.
T1: Chryseobacterium gambrini deamidase polypeptide, wildtype, with His-tag (Chryseobacterium gambrini)
T1 chain: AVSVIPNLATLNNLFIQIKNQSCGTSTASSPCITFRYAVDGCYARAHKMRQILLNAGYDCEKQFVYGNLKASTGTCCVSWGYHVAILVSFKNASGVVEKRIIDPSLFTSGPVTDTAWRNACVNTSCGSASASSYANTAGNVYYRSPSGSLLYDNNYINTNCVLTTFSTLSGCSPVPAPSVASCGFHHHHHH

T2: Chryseobacterium sp-62563 deamidase polypeptide (second polypeptide, deamidase domain), wildtype (Chryseobacterium sp-62563)
T2 sequence: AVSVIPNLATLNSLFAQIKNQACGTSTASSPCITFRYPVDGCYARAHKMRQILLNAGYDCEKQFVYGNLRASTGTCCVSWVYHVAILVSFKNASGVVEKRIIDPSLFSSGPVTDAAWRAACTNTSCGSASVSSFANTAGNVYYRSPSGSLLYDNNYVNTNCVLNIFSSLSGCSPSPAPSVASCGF

T3: Chryseobacterium sp-62563 deamidase C169S (Chryseobacterium sp-62563)
T3 sequence: T2 sequence with C60S

T4: Chryseobacterium sp-62563 deamidase C230H (Chryseobacterium sp-62563)
T4 sequence: T2 sequence with C121H

T5: Chryseobacterium gambrini deamidase polypeptide, wildtype, with His-tag (Chryseobacterium gambrini)
T5 sequence: T1 chain

T6: Chryseobacterium proteolyticum deamidase polypeptide, wildtype, with His-tag (Chryseobacterium proteolyticum) (UniProt Q9AQQ8)
T6 sequence: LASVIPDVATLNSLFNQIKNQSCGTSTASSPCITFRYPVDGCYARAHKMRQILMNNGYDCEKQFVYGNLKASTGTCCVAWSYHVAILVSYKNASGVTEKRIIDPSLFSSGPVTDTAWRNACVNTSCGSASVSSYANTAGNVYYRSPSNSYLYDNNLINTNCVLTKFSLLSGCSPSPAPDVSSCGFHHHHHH

T7: Chryseobacterium defluvii deamidase polypeptide, wildtype, with His-tag (Chryseobacterium defluvii)
T7 sequence: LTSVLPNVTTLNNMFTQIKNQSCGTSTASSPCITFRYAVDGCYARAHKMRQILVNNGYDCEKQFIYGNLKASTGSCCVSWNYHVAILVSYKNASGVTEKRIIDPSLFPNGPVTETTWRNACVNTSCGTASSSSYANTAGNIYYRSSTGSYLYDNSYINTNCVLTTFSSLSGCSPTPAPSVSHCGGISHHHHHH

B1: Chryseobacterium gambrini propeptide, wildtype (other)
chain: NQDPNLVVKENNENAMRDFGSTIPVGIQKEGNVLKVSFIISAQFYEIKDSKENEAFISMIKSAIENETPVHVFLKKNSNEIAKVEKATDEDVTYFKSIFTKEVKEENRK
B2: Chryseobacterium sp-62563 propeptide F99G (protein)
chain: NQDPNLVAKESNETAMKDFGKTVPVGIEKEDGKFKISFMVTAQPYEIKDSKENAAYISMIKTAVENETPIHVFLKANTNEIAKVDKATDDDIRYFKSVGTKEVKEENRK
B3: Chryseobacterium sp-62563 propeptide M16G (protein)
chain: B2 chain with M16G, G99F
B4: Chryseobacterium sp-62563 propeptide K101E (protein)
chain: B2 chain with G99F, K101E
B5: Chryseobacterium sp-62563 propeptide R108N (protein)
chain: B2 chain with G99F, R108N
B6: Chryseobacterium sp-62563 propeptide G20D (protein)
chain: B2 chain with G20D, G99F
B7: Chryseobacterium sp-62563 propeptide T100Q (protein)
chain: B2 chain with G99F, T100Q
B8: Chryseobacterium sp-62563 propeptide K101C (protein)
chain: B2 chain with G99F, K101C
B9: Chryseobacterium sp-62563 propeptide K101A (protein)
chain: B2 chain with G99F, K101A
B10: Chryseobacterium sp-62563 propeptide T14P (protein)
chain: B2 chain with T14P, G99F
B11: Chryseobacterium sp-62563 propeptide K101S (protein)
chain: B2 chain with G99F, K101S
B12: Chryseobacterium sp-62563 propeptide E10P (protein)
chain: B2 chain with E10P, G99F
B13: Chryseobacterium sp-62563 propeptide K101I (protein)
chain: B2 chain with G99F, K101I
B14: Chryseobacterium sp-62563 propeptide K101L (protein)
chain: B2 chain with G99F, K101L
B15: Chryseobacterium sp-62563 propeptide K101G (protein)
chain: B2 chain with G99F, K101G
B16: Chryseobacterium sp-62563 propeptide K109G (protein)
chain: B2 chain with G99F, K109G
B17: Chryseobacterium sp-62563 propeptide K101P (protein)
chain: B2 chain with G99F, K101P
B18: Chryseobacterium sp-62563 propeptide T100E (protein)
chain: B2 chain with G99F, T100E
B19: Chryseobacterium sp-62563 propeptide K101N (protein)
chain: B2 chain with G99F, K101N
B20: Chryseobacterium sp-62563 propeptide K101W (protein)
chain: B2 chain with G99F, K101W
B21: Chryseobacterium sp-62563 propeptide K109C (protein)
chain: B2 chain with G99F, K109C
B22: Chryseobacterium sp-62563 propeptide K101D (protein)
chain: B2 chain with G99F, K101D
B23: Chryseobacterium sp-62563 propeptide K101Y (protein)
chain: B2 chain with G99F, K101Y
B24: Chryseobacterium sp-62563 propeptide K101M (protein)
chain: B2 chain with G99F, K101M
B25: Chryseobacterium sp-62563 propeptide E13C (protein)
chain: B2 chain with E13C, G99F
B26: Chryseobacterium gambrini propeptide I23S (protein)
chain: B1 chain with I23S
B27: Chryseobacterium gambrini propeptide Y45T (protein)
chain: B1 chain with Y45T
B28: Chryseobacterium gambrini propeptide F38C (protein)
chain: B1 chain with F38C
B29: Chryseobacterium gambrini propeptide F99K (protein)
chain: B1 chain with F99K
B30: Chryseobacterium gambrini propeptide F99G (protein)
chain: B1 chain with F99G
B31: Chryseobacterium gambrini propeptide Y94P (protein)
chain: B1 chain with Y94P
B32: Chryseobacterium gambrini propeptide F99A (protein)
chain: B1 chain with F99A
B33: Chryseobacterium proteolyticum propeptide L100A (protein)
chain: NQEINGKEKLSVNDSKLKDFGKTVPVGIDEENGMIKVSFMLTAQFYEIKPTKENEQYIGMLRQAVKNESPVHIFLKPNSNEIGKVESASPEDVRYFKTIATKEVKEENRK
B34: Chryseobacterium proteolyticum propeptide L100G (protein)
chain: B33 chain with A100G
B35: Chryseobacterium defluvii propeptide Y47T (protein)
chain: ATNQDVVGKENTSNHVAARDFGKTVPVGINEENGTLKVSFILSAQFTEIKPSKENEEYISLIRQAIQNESPIHVFMKLNSNEIVKVEKGTEEDVKYFRSILTKEVKEENRK
B36: Chryseobacterium defluvii propeptide L101K (protein)
chain: B35 chain with T47Y, L101K
B37: Chryseobacterium defluvii propeptide L101A (protein)
chain: B35 chain with T47Y, L101A
B38: Chryseobacterium defluvii propeptide L101G (protein)
chain: B35 chain with T47Y, L101G

Biological target: T1, Chryseobacterium gambrini deamidase …
Experiment: cell-based or functional assay

NanoDSF thermal unfolding temperature	Molecule
89.3 ° C.	B1

Biological target: T2, Chryseobacterium sp-62563 deamidase polypeptide (second polypeptide, deamidase domain), wildtype (Chryseobacterium sp-62563)
Experiment: cell-based or functional assay

Leakage activity	NanoDSF thermal unfolding temperature	Relative activity of maturated deamidase (% initial rate)	Molecule
9%	74.1 ° C.	> 100	B2
0%		27	B3
		45	B4
0%			B5
0%			B6
		79	B7
		38	B8
		36	B9
0%			B10
		29	B11
0%			B12
		38	B13
		41	B14
		34	B15
0%		29	B16
		36	B17
		75	B18
		29	B19
		54	B20
0%			B21
		46	B22
		46	B23
		29	B24
0%			B25

Biological target: T3, Chryseobacterium sp-62563 deamidase C169S (Chryseobacterium sp-62563)
Experiment: cell-based or functional assay

Leakage activity	Relative activity of maturated deamidase (% initial rate)	Molecule
3%	> 100	B2

Biological target: Chryseobacterium culicis deamidase polypeptide, wildtype, with His-tag (Chryseobacterium culicis)
Experiment: cell-based or functional assay

Leakage activity	NanoDSF thermal unfolding temperature	Molecule
3%		Chryseobacterium culicis propeptide F99K + N100T + E103V + R104K + G105E + D106E + S107N + K108R
	82.3 ° C.	Chryseobacterium culicis propeptide Y94P
	79.5 ° C.	Chryseobacterium culicis propeptide F38C

Biological target: T4, Chryseobacterium sp-62563 deamidase C230H (Chryseobacterium sp-62563)
Experiment: cell-based or functional assay

Leakage activity	Molecule
0%	B2

Biological target: T5, Chryseobacterium gambrini deamidase polypeptide, wildtype, with His-tag (Chryseobacterium gambrini)
Experiment: cell-based or functional assay

NanoDSF thermal unfolding temperature	Molecule
77.2 ° C.	B26
79.3 ° C.	B27
82.3 ° C.	B28
78.4 ° C.	B29
69.3 ° C.	B30
81.1 ° C.	B31
70.4 ° C.	B32

Biological target: T6, Chryseobacterium proteolyticum deamidase polypeptide, wildtype, with His-tag (Chryseobacterium proteolyticum)
Experiment: cell-based or functional assay

NanoDSF thermal unfolding temperature	Molecule
80 ° C.	B33
77.3 ° C.	B34

Biological target: T7, Chryseobacterium defluvii deamidase polypeptide, wildtype, with His-tag (Chryseobacterium defluvii)
Experiment: cell-based or functional assay

NanoDSF thermal unfolding temperature	Molecule
80.4 ° C.	B35
80.5 ° C.	B36
82 ° C.	B37
79.8 ° C.	B38

— patent publication US20250215412A1 (NOVOZYMES A S, published 2025)
